What all share (experiment): SEC-MALS; 100 ug purified Strep-tagged PfPdx1 on Superdex 200 10/30 with static light scattering (miniDAWN Tristar); 100 mM Tris-HCl pH 8.0, 150 mM NaCl, no amino acid added
(Size exclusion chromatography separates by hydrodynamic size, large species first.)

For assay [1], the target named is PfPdx1 ERR (E136A/R139A/R140A) triple mutant (P. falciparum) (UniProt C6KT50).
The target of assay [2] is PfPdx1 D26A (P. falciparum) (UniProt C6KT50).
Assay [3] addresses PfPdx1 K83A (P. falciparum) (UniProt C6KT50).

“PfPdx1 ERR (E136A/R139A/R140A) triple mutant (from UniProt C6KT50 1-301) (enzyme)”: the stoichiometry N (in general, the number of molecules, sites or subunits per partner or assembly) in assay [1] turned out to be 12.
With “PfPdx1 D26A (from UniProt C6KT50 1-301) (enzyme)”, in assay [2], the stoichiometry N amounted to 12.
As to “PfPdx1 K83A (from UniProt C6KT50 1-301) (enzyme)”, the stoichiometry N in assay [3] was 12.

The values above are taken from article PMC2266796.
